Laboratory results: the Immune Epitope Database (IEDB)

Columns and labels:
Settings in all cases: source organism: Vaccinia virus WR
HLA-A*68:02 [1] = assay: IEDB peptide-MHC binding, purified MHC/competitive/radioactivity; ≥ and ≤ were set here for values at or beyond the usual limits of such assays
HLA-A*02:02 = assay: as above
HLA-A*02:03 = assay: as above
HLA-A*02:06 [2] = assay: as above
HLA-A*29:02 [3] = assay: as above
HLA-A*01:01 [4] = assay: as above
HLA-A*26:01 [5] = assay: as above
HLA-A*30:02 [6] = assay: IEDB peptide-MHC binding, purified MHC/competitive/radioactivity; filed as Kd, often an IC50 or EC50 that approximates it; ≥ and ≤ were set here for values at or beyond the usual limits of such assays
HLA-A*33:01 [7] = assay: IEDB peptide-MHC binding, purified MHC/competitive/radioactivity; ≥ and ≤ were set here for values at or beyond the usual limits of such assays
HLA-A*11:01 = assay: as above
HLA-A*31:01 [8] = assay: as above
HLA-A*03:01 = assay: as above
HLA-A*68:01 [9] = assay: IEDB peptide-MHC binding, purified MHC/competitive/radioactivity; filed as Kd, often an IC50 or EC50 that approximates it; ≥ and ≤ were set here for values at or beyond the usual limits of such assays
HLA-B*51:01 [10] = assay: IEDB peptide-MHC binding, purified MHC/competitive/radioactivity; ≥ and ≤ were set here for values at or beyond the usual limits of such assays
HLA-B*54:01 [11] = assay: as above
HLA-B*07:02 = assay: as above
HLA-B*53:01 [12] = assay: as above
HLA-B*35:01 [13] = assay: as above
HLA-A*68:02 [14] = assay: IEDB peptide-MHC binding, purified MHC/competitive/radioactivity; filed as Kd, often an IC50 or EC50 that approximates it; ≥ and ≤ were set here for values at or beyond the usual limits of such assays
HLA-A*23:01 = assay: IEDB peptide-MHC binding, purified MHC/competitive/radioactivity; ≥ and ≤ were set here for values at or beyond the usual limits of such assays
HLA-A*24:02 = assay: as above
HLA-A*29:02 [15] = assay: IEDB peptide-MHC binding, purified MHC/competitive/radioactivity; filed as Kd, often an IC50 or EC50 that approximates it; ≥ and ≤ were set here for values at or beyond the usual limits of such assays
HLA-B*18:01 [16] = assay: IEDB peptide-MHC binding, purified MHC/competitive/radioactivity; ≥ and ≤ were set here for values at or beyond the usual limits of such assays
HLA-B*40:01 [17] = assay: IEDB peptide-MHC binding, purified MHC/competitive/radioactivity; filed as Kd, often an IC50 or EC50 that approximates it; ≥ and ≤ were set here for values at or beyond the usual limits of such assays
HLA-B*40:02 [18] = assay: as above
HLA-B*45:01 = assay: as above
HLA-B*44:03 = assay: as above
HLA-B*44:02 = assay: as above
HLA-A*33:01 [19] = assay: as above
HLA-A*26:01 [20] = assay: as above
HLA-A*30:02 [21] = assay: IEDB peptide-MHC binding, purified MHC/competitive/radioactivity; ≥ and ≤ were set here for values at or beyond the usual limits of such assays
HLA-A*68:01 [22] = assay: as above
HLA-A*31:01 [23] = assay: IEDB peptide-MHC binding, purified MHC/competitive/radioactivity; filed as Kd, often an IC50 or EC50 that approximates it; ≥ and ≤ were set here for values at or beyond the usual limits of such assays
HLA-A*02:06 [24] = assay: as above
HLA-B*40:01 [25] = assay: IEDB peptide-MHC binding, purified MHC/competitive/radioactivity; ≥ and ≤ were set here for values at or beyond the usual limits of such assays
HLA-B*40:02 [26] = assay: as above
HLA-B*18:01 [27] = assay: IEDB peptide-MHC binding, purified MHC/competitive/radioactivity; filed as Kd, often an IC50 or EC50 that approximates it; ≥ and ≤ were set here for values at or beyond the usual limits of such assays
HLA-B*51:01 [28] = assay: as above
HLA-B*54:01 [29] = assay: as above
HLA-B*53:01 [30] = assay: as above
HLA-B*35:01 [31] = assay: as above
HLA-A*01:01 [32] = assay: as above

FLTSVINRV
IC50 (HLA-A*68:02 [1]): 0.42 nM
IC50 (HLA-A*02:02): 0.11 nM
IC50 (HLA-A*02:03): 1.4 nM
IC50 (HLA-A*02:06 [2]): 4.8 nM

FTIDFKLKY
IC50 (HLA-A*29:02 [3]): 1.4 nM
IC50 (HLA-A*01:01 [4]): 60 nM
IC50 (HLA-A*26:01 [5]): 21 nM
Kd (HLA-A*30:02 [6]): 1050 nM

YLLVKWYRK
IC50 (HLA-A*33:01 [7]): 114 nM
IC50 (HLA-A*11:01): 3.6 nM
IC50 (HLA-A*31:01 [8]): 45 nM
IC50 (HLA-A*03:01): 5.6 nM
Kd (HLA-A*68:01 [9]): ≥ 50000 nM

MPAYIRNTL
IC50 (HLA-B*51:01 [10]): 461 nM
IC50 (HLA-B*54:01 [11]): 3.4 nM
IC50 (HLA-B*07:02): 0.53 nM
IC50 (HLA-B*53:01 [12]): 49 nM
IC50 (HLA-B*35:01 [13]): 19 nM

ILDDNLYKV
IC50 (HLA-A*02:02): 4.5 nM
IC50 (HLA-A*02:03): 61 nM
IC50 (HLA-A*02:06 [2]): 8.9 nM
Kd (HLA-A*68:02 [14]): ≥ 48300 nM

RYRFAFLYLL
IC50 (HLA-A*23:01): 41 nM
IC50 (HLA-A*24:02): 166 nM
Kd (HLA-A*29:02 [15]): 16200 nM

DELVDPINY
IC50 (HLA-B*18:01 [16]): 16 nM
Kd (HLA-B*40:01 [17]): 529 nM
Kd (HLA-B*40:02 [18]): 13300 nM
Kd (HLA-B*45:01): 12400 nM
Kd (HLA-B*44:03): 2670 nM
Kd (HLA-B*44:02): 14300 nM

KLKIISNDYK
IC50 (HLA-A*11:01): 464 nM
IC50 (HLA-A*31:01 [8]): 137 nM
IC50 (HLA-A*03:01): 4.5 nM
Kd (HLA-A*68:01 [9]): ≥ 50000 nM
Kd (HLA-A*33:01 [19]): ≥ 50000 nM

VWINNSWKF
IC50 (HLA-A*23:01): 5.3 nM
IC50 (HLA-A*29:02 [3]): 4.9 nM
IC50 (HLA-A*24:02): 6.4 nM

FLNISWFYI
IC50 (HLA-A*68:02 [1]): 240 nM
IC50 (HLA-A*02:02): 0.17 nM
IC50 (HLA-A*02:03): 0.33 nM
IC50 (HLA-A*02:06 [2]): 1 nM

FGDSKEPVPY
IC50 (HLA-A*01:01 [4]): 137 nM
Kd (HLA-A*29:02 [15]): 564 nM
Kd (HLA-A*30:02 [6]): 8170 nM
Kd (HLA-A*26:01 [20]): 5680 nM

VTDTNKFDNY
IC50 (HLA-A*30:02 [21]): 256 nM
IC50 (HLA-A*01:01 [4]): 1.6 nM
Kd (HLA-A*29:02 [15]): ≥ 50000 nM
Kd (HLA-A*26:01 [20]): ≥ 50000 nM

QSDTVFDYY
IC50 (HLA-A*01:01 [4]): 1 nM
Kd (HLA-A*29:02 [15]): ≥ 50000 nM
Kd (HLA-A*30:02 [6]): 2950 nM
Kd (HLA-A*26:01 [20]): ≥ 50000 nM

VSVNNVCHMY
IC50 (HLA-A*30:02 [21]): 3.7 nM
IC50 (HLA-A*01:01 [4]): 130 nM
Kd (HLA-A*29:02 [15]): 1080 nM
Kd (HLA-A*26:01 [20]): 4260 nM

KVMFVIRFK
IC50 (HLA-A*68:01 [22]): 30 nM
IC50 (HLA-A*11:01): 7.3 nM
IC50 (HLA-A*31:01 [8]): 4.9 nM
IC50 (HLA-A*03:01): 1.4 nM
Kd (HLA-A*33:01 [19]): 857 nM

FLSMLNLTKY
IC50 (HLA-A*29:02 [3]): 154 nM
IC50 (HLA-A*30:02 [21]): 500 nM
IC50 (HLA-A*01:01 [4]): 267 nM
Kd (HLA-A*26:01 [20]): 7830 nM

GTIAGGVCYY
IC50 (HLA-A*11:01): 4.5 nM
IC50 (HLA-A*03:01): 132 nM
Kd (HLA-A*68:01 [9]): 11100 nM
Kd (HLA-A*33:01 [19]): ≥ 38600 nM
Kd (HLA-A*31:01 [23]): 8450 nM

AVFKDSFLRK
IC50 (HLA-A*68:01 [22]): 47 nM
IC50 (HLA-A*11:01): 121 nM
IC50 (HLA-A*03:01): 8.2 nM
Kd (HLA-A*33:01 [19]): ≥ 42400 nM
Kd (HLA-A*31:01 [23]): 686 nM

KTKNFTIDFK
IC50 (HLA-A*68:01 [22]): 144 nM
IC50 (HLA-A*11:01): 22 nM
IC50 (HLA-A*31:01 [8]): 14 nM
IC50 (HLA-A*03:01): 11 nM
Kd (HLA-A*33:01 [19]): ≥ 40400 nM

KVLHVTDTNK
IC50 (HLA-A*11:01): 10 nM
IC50 (HLA-A*31:01 [8]): 466 nM
IC50 (HLA-A*03:01): 8.1 nM
Kd (HLA-A*68:01 [9]): 3020 nM
Kd (HLA-A*33:01 [19]): ≥ 50000 nM

DMCDIYLLY
IC50 (HLA-A*29:02 [3]): 89 nM
IC50 (HLA-A*30:02 [21]): 55 nM
IC50 (HLA-A*01:01 [4]): 28 nM
IC50 (HLA-A*26:01 [5]): 82 nM

VTSSGAIYK
IC50 (HLA-A*68:01 [22]): 24 nM
IC50 (HLA-A*11:01): 3.1 nM
IC50 (HLA-A*03:01): 10 nM
Kd (HLA-A*33:01 [19]): ≥ 21400 nM
Kd (HLA-A*31:01 [23]): 3970 nM

GLNDYLHSV
IC50 (HLA-A*02:02): 0.74 nM
IC50 (HLA-A*02:03): 1.4 nM
IC50 (HLA-A*02:06 [2]): 3.9 nM
Kd (HLA-A*68:02 [14]): 2660 nM

SMHFYGWSL
Kd (HLA-A*02:06 [24]): 2040 nM

TEYDDHINL
IC50 (HLA-B*40:01 [25]): 7.5 nM
IC50 (HLA-B*40:02 [26]): 108 nM
Kd (HLA-B*45:01): 7790 nM
Kd (HLA-B*18:01 [27]): 645 nM
Kd (HLA-B*44:03): 1200 nM
Kd (HLA-B*44:02): 913 nM

KPKPAVRFAI
IC50 (HLA-B*07:02): 0.18 nM
Kd (HLA-B*51:01 [28]): ≥ 50000 nM
Kd (HLA-B*54:01 [29]): 680 nM
Kd (HLA-B*53:01 [30]): ≥ 20500 nM
Kd (HLA-B*35:01 [31]): ≥ 36300 nM

QSITRSLIY
IC50 (HLA-A*29:02 [3]): 295 nM
IC50 (HLA-A*30:02 [21]): 291 nM
IC50 (HLA-A*01:01 [4]): 74 nM
Kd (HLA-A*26:01 [20]): 4980 nM

RPMSLRSTII
IC50 (HLA-B*54:01 [11]): 265 nM
IC50 (HLA-B*07:02): 0.43 nM
Kd (HLA-B*51:01 [28]): 9620 nM
Kd (HLA-B*53:01 [30]): 1230 nM
Kd (HLA-B*35:01 [31]): ≥ 45900 nM

NQVKFYFNK
IC50 (HLA-A*68:01 [22]): 5.8 nM
IC50 (HLA-A*11:01): 2.2 nM
IC50 (HLA-A*31:01 [8]): 15 nM
IC50 (HLA-A*03:01): 192 nM
Kd (HLA-A*33:01 [19]): 822 nM

IVFNLPVSK
IC50 (HLA-A*68:01 [22]): 5.4 nM
IC50 (HLA-A*11:01): 4.6 nM
IC50 (HLA-A*31:01 [8]): 23 nM
IC50 (HLA-A*03:01): 2.2 nM
Kd (HLA-A*33:01 [19]): 3170 nM

SQSDTVFDY
IC50 (HLA-A*30:02 [21]): 2.3 nM
Kd (HLA-A*29:02 [15]): 844 nM
Kd (HLA-A*01:01 [32]): 3020 nM
Kd (HLA-A*26:01 [20]): 1860 nM

NLFDIPLLTV
IC50 (HLA-A*68:02 [1]): 8.1 nM
IC50 (HLA-A*02:02): 0.1 nM
IC50 (HLA-A*02:03): 0.25 nM
IC50 (HLA-A*02:06 [2]): 1.5 nM

HPRHYATVM
IC50 (HLA-B*07:02): 0.87 nM
IC50 (HLA-B*35:01 [13]): 63 nM
Kd (HLA-B*51:01 [28]): 14700 nM
Kd (HLA-B*54:01 [29]): 4380 nM
Kd (HLA-B*53:01 [30]): 3060 nM
